This data set concerns the molecule itself. Briefly: cryo-EM structure.

B1: wild-type mouse TRPV3 channel (natural protein, UniProt Q8K424 1-791, looked up)
chain: MNAHSKEMAPLMGKRTTAPGGNPVVLTEKRPADLTPTKKSAHFFLEIEGFEPNPTVTKTSPPIFSKPMDSNIRQCLSGNCDDMDSPQSPQDDVTETPSNPNSPSANLAKEEQRQKKKRLKKRIFAAVSEGCVEELRELLQDLQDLCRRRRGLDVPDFLMHKLTASDTGKTCLMKALLNINPNTKEIVRILLAFAEENDILDRFINAEYTEEAYEGQTALNIAIERRQGDITAVLIAAGADVNAHAKGVFFNPKYQHEGFYFGETPLALAACTNQPEIVQLLMENEQTDITSQDSRGNNILHALVTVAEDFKTQNDFVKRMYDMILLRSGNWELETMRNNDGLTPLQLAAKMGKAEILKYILSREIKEKPLRSLSRKFTDWAYGPVSSSLYDLTNVDTTTDNSVLEIIVYNTNIDNRHEMLTLEPLHTLLHTKWKKFAKYMFFLSFCFYFFYNITLTLVSYYRPREDEDLPHPLALTHKMSWLQLLGRMFVLIWATCISVKEGIAIFLLRPSDLQSILSDAWFHFVFFVQAVLVILSVFLYLFAYKEYLACLVLAMALGWANMLYYTRGFQSMGMYSVMIQKVILHDVLKFLFVYILFLLGFGVALASLIEKCSKDKKDCSSYGSFSDAVLELFKLTIGLGDLNIQQNSTYPILFLFLLITYVILTFVLLLNMLIALMGETVENVSKESERIWRLQRARTILEFEKMLPEWLRSRFRMGELCKVADEDFRLCLRINEVKWTEWKTHVSFLNEDPGPIRRTADLNKIQDSSRSNSKTTLYAFDELDEFPETSV
For B1, the “stoichiometry N” value stood at 4.

As usually defined, the stoichiometry N is the number of molecules, sites or subunits per partner or assembly.

Values taken from publication doi:10.1101/2025.09.17.676191 (bioRxiv, 2025).
